Source: FireProtDB (doi:10.1021/bi000610b)
“And” between values parts separate entries of the source, which are not always exact repeats. Equal values may be shown once.

Conditions: Chlamydomonas reinhardtii, Thermal, glycine-HCl 10 mM, reversible: yes, whole UniProt chain shown

B1: Thioredoxin H-type wild type, P80028 (protein)
chain: MGGSVIVIDSKAAWDAQLAKGKEEHKPIVVDFTATWCGPCKMIAPLFETLSNDYAGKVIFLKVDVDAVAAVAEAAGITAMPTFHVYKDGVKADDLVGASQDKLKALVAKHAAA
Tm (pH 2.13, Fluorescence): 35.4 °C
unfolding enthalpy (van 't Hoff) (pH 2.13, Fluorescence): 23.4 kcal/mol
Tm (pH 2.25, CD): 37.7 °C and 34.5 °C
unfolding enthalpy (van 't Hoff) (pH 2.25, CD): 21.5 kcal/mol and 17.9 kcal/mol
Tm (pH 2.25, DSC): 40 °C
Tm (pH 2.25, Fluorescence): 42.7 °C
unfolding enthalpy (van 't Hoff) (pH 2.25, Fluorescence): 31.8 kcal/mol
Tm (pH 2.5, CD): 47.3 °C and 46.6 °C
unfolding enthalpy (van 't Hoff) (pH 2.5, CD): 42.5 kcal/mol and 38.5 kcal/mol
Tm (pH 2.5, DSC): 51.1 °C
unfolding enthalpy (calorimetric) (pH 2.5, DSC): 52.6 kcal/mol
Tm (pH 2.5, Fluorescence): 49.2 °C
unfolding enthalpy (van 't Hoff) (pH 2.5, Fluorescence): 40.9 kcal/mol
Tm (pH 2.75, CD): 57.5 °C and 53.4 °C
unfolding enthalpy (van 't Hoff) (pH 2.75, CD): 59.5 kcal/mol and 54.2 kcal/mol
Tm (pH 3, CD): 63 °C and 61.4 °C
unfolding enthalpy (van 't Hoff) (pH 3, CD): 76.5 kcal/mol and 65.2 kcal/mol
Tm (pH 3, DSC): 66.4 °C
unfolding enthalpy (calorimetric) (pH 3, DSC): 77.4 kcal/mol
Tm (pH 3, Fluorescence): 65.3 °C
unfolding enthalpy (van 't Hoff) (pH 3, Fluorescence): 66.9 kcal/mol
Tm (pH 3.25, DSC): 73.6 °C
unfolding enthalpy (calorimetric) (pH 3.25, DSC): 80.8 kcal/mol
